In patent US20260176319A1 (KALLYOPE, published 2026):
Starred links: 1 amine or outer side, 2 acyl side, 3 side chain; linkers in the order of their positions; H or OH if unused. Non-standard residues stand in square brackets, D forms with d. Primed or numbered codes have the meaning given here. *: point of attachment. Trp(7-Me) = Cc1cccc2c(C[C@H](N)C(=O)O)c[nH]c12; C20 diacid = O=C(O)CCCCCCCCCCCCCCCCCCC(=O)*; d(γGlu) = O=C(O)[C@@H](CCC(=O)[*:2])N[*:1]; αMeW = C[C@](N)(Cc1c[nH]c2ccccc12)C(=O)O; γGlu = O=C(O)[C@H](CCC(=O)[*:2])N[*:1]; NMeH = CN[C@@H](Cc1c[nH]cn1)C(=O)O; Palmitoyl = CCCCCCCCCCCCCCCC(=O)*; Hyp = O=C(O)[C@@H]1C[C@@H](O)CN1; 3Pal = N[C@@H](Cc1cccnc1)C(=O)O; Met(O) = CS(=O)CC[C@H](N)C(=O)O; Nle = CCCC[C@H](N)C(=O)O; PEG5′ = not defined here; ACBA = not defined here; ACPA = not defined here; ACPC = not defined here; AEEA = NCCOCCOCC(=O)O; Aib = CC(C)(N)C(=O)O; βAla = NCCC(=O)O; Sar = CNCC(=O)O

Biological target: human GRP receptor (human, UniProt P30550 1-384)
Assay: cell-based or functional assay

human GRP receptor, sequence (P30550 whole entry): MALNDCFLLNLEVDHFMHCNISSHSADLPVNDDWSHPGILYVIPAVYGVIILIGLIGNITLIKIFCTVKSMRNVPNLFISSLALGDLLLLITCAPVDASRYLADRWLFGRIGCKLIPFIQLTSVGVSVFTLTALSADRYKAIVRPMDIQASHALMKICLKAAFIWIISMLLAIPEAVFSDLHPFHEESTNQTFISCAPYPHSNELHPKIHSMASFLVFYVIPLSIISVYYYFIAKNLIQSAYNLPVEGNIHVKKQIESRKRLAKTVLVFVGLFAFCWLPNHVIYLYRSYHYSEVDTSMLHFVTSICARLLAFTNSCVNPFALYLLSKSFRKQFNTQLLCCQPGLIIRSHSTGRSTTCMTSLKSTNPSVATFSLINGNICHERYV

Binder | hIP1 GRPR EC50 [nM]
{C20 diacid}-[γGlu][γGlu][PEG5′]GEH[Trp(7-Me)]AV[BABA]HL[Nle]-NH2 [Peptide 275] | 12.3
{C20 diacid}-[γGlu][AEEA][AEEA]GQHWAV[βAla][NMeH]L[Nle]-NH2 (SMILES CCCC[C@H](NC(=O)[C@H](CC(C)C)NC(=O)[C@H](Cc1c[nH]cn1)N(C)C(=O)CCNC(=O)[C@@H](NC(=O)[C@H](C)NC(=O)[C@H](Cc1c[nH]c2ccccc12)NC(=O)[C@H](Cc1c[nH]cn1)NC(=O)[C@H](CCC(N)=O)NC(=O)CNC(=O)COCCOCCNC(=O)COCCOCCNC(=O)CC[C@H](NC(=O)CCCCCCCCCCCCCCCCCCC(=O)O)C(=O)O)C(C)C)C(N)=O) [Peptide 267] | 7.4
{C20 diacid}-[γGlu][γGlu][AEEA][AEEA]GNH[αMeW]AV[βAla]HL[Nle]-NH2 (SMILES CCCC[C@H](NC(=O)[C@H](CC(C)C)NC(=O)[C@H](Cc1c[nH]cn1)NC(=O)CCNC(=O)[C@@H](NC(=O)[C@H](C)NC(=O)[C@](C)(Cc1c[nH]c2ccccc12)NC(=O)[C@H](Cc1c[nH]cn1)NC(=O)[C@H](CC(N)=O)NC(=O)CNC(=O)COCCOCCNC(=O)COCCOCCNC(=O)CC[C@H](NC(=O)CC[C@H](NC(=O)CCCCCCCCCCCCCCCCCCC(=O)O)C(=O)O)C(=O)O)C(C)C)C(N)=O) [Peptide 274] | 4.9
{C20 diacid}-[γGlu][AEEA][AEEA]PQHWAV[βAla]HL[Nle]-NH2 (SMILES CCCC[C@H](NC(=O)[C@H](CC(C)C)NC(=O)[C@H](Cc1c[nH]cn1)NC(=O)CCNC(=O)[C@@H](NC(=O)[C@H](C)NC(=O)[C@H](Cc1c[nH]c2ccccc12)NC(=O)[C@H](Cc1c[nH]cn1)NC(=O)[C@H](CCC(N)=O)NC(=O)[C@@H]1CCCN1C(=O)COCCOCCNC(=O)COCCOCCNC(=O)CC[C@H](NC(=O)CCCCCCCCCCCCCCCCCCC(=O)O)C(=O)O)C(C)C)C(N)=O) [Peptide 268] | 4.3
Palmitoyl-[d(γGlu)][AEEA][AEEA]GE[3Pal][Trp(7-Me)][Aib]V[dA][3Pal]L[Nle][Sar]-NH2 (SMILES CCCCCCCCCCCCCCCC(=O)N[C@H](CCC(=O)NCCOCCOCC(=O)NCCOCCOCC(=O)NCC(=O)N[C@@H](CCC(=O)O)C(=O)N[C@@H](Cc1cccnc1)C(=O)N[C@@H](Cc1c[nH]c2c(C)cccc12)C(=O)NC(C)(C)C(=O)N[C@H](C(=O)N[C@H](C)C(=O)N[C@@H](Cc1cccnc1)C(=O)N[C@@H](CC(C)C)C(=O)N[C@@H](CCCC)C(=O)N(C)CC(N)=O)C(C)C)C(=O)O) [Peptide 18] | ~1000
Palmitoyl-[d(γGlu)][AEEA][AEEA]GNHWAV[dA][3Pal]L[Nle]-NH2 (SMILES CCCCCCCCCCCCCCCC(=O)N[C@H](CCC(=O)NCCOCCOCC(=O)NCCOCCOCC(=O)NCC(=O)N[C@@H](CC(N)=O)C(=O)N[C@@H](Cc1c[nH]cn1)C(=O)N[C@@H](Cc1c[nH]c2ccccc12)C(=O)N[C@@H](C)C(=O)N[C@H](C(=O)N[C@H](C)C(=O)N[C@@H](Cc1cccnc1)C(=O)N[C@@H](CC(C)C)C(=O)N[C@@H](CCCC)C(N)=O)C(C)C)C(=O)O) [Peptide 17] | 3
{C20 diacid}-[γGlu][AEEA][AEEA]GEGEHWAV[βAla]HL[Nle]-NH2 (SMILES CCCC[C@H](NC(=O)[C@H](CC(C)C)NC(=O)[C@H](Cc1c[nH]cn1)NC(=O)CCNC(=O)[C@@H](NC(=O)[C@H](C)NC(=O)[C@H](Cc1c[nH]c2ccccc12)NC(=O)[C@H](Cc1c[nH]cn1)NC(=O)[C@H](CCC(=O)O)NC(=O)CNC(=O)[C@H](CCC(=O)O)NC(=O)CNC(=O)COCCOCCNC(=O)COCCOCCNC(=O)CC[C@H](NC(=O)CCCCCCCCCCCCCCCCCCC(=O)O)C(=O)O)C(C)C)C(N)=O) [Peptide 266] | 11
{C20 diacid}-[γGlu][γGlu][AEEA][AEEA]GQH[Trp(7-Me)]AV[BABA][NMeH]L[Nle]-NH2 [Peptide 270] | 3.8
Palmitoyl-[d(γGlu)][AEEA][AEEA]GNHWAV[Aib]HL[Nle]-NH2 (SMILES CCCCCCCCCCCCCCCC(=O)N[C@H](CCC(=O)NCCOCCOCC(=O)NCCOCCOCC(=O)NCC(=O)N[C@@H](CC(N)=O)C(=O)N[C@@H](Cc1c[nH]cn1)C(=O)N[C@@H](Cc1c[nH]c2ccccc12)C(=O)N[C@@H](C)C(=O)N[C@H](C(=O)NC(C)(C)C(=O)N[C@@H](Cc1c[nH]cn1)C(=O)N[C@@H](CC(C)C)C(=O)N[C@@H](CCCC)C(N)=O)C(C)C)C(=O)O) [Peptide 1] | 6.9
{C20 diacid}-[γGlu][γGlu][AEEA][AEEA]SEH[Trp(7-Me)]AV[BABA][NMeH]L[Nle]-NH2 [Peptide 277] | 13.1
Palmitoyl-[d(γGlu)][AEEA][AEEA]GEHWAV[dA]HL[Nle]-NH2 (SMILES CCCCCCCCCCCCCCCC(=O)N[C@H](CCC(=O)NCCOCCOCC(=O)NCCOCCOCC(=O)NCC(=O)N[C@@H](CCC(=O)O)C(=O)N[C@@H](Cc1c[nH]cn1)C(=O)N[C@@H](Cc1c[nH]c2ccccc12)C(=O)N[C@@H](C)C(=O)N[C@H](C(=O)N[C@H](C)C(=O)N[C@@H](Cc1c[nH]cn1)C(=O)N[C@@H](CC(C)C)C(=O)N[C@@H](CCCC)C(N)=O)C(C)C)C(=O)O) [Peptide 16] | 5.8
{C20 diacid}-[γGlu][γGlu][AEEA][AEEA]GQHWAV[ACPA]HL[Nle]-NH2 (reading uncertain) [Peptide 272] | 6
{C20 diacid}-[γGlu][AEEA][AEEA]GQHWAV[βAla]HL[Met(O)]-NH2 (SMILES CC(C)C[C@H](NC(=O)[C@H](Cc1c[nH]cn1)NC(=O)CCNC(=O)[C@@H](NC(=O)[C@H](C)NC(=O)[C@H](Cc1c[nH]c2ccccc12)NC(=O)[C@H](Cc1c[nH]cn1)NC(=O)[C@H](CCC(N)=O)NC(=O)CNC(=O)COCCOCCNC(=O)COCCOCCNC(=O)CC[C@H](NC(=O)CCCCCCCCCCCCCCCCCCC(=O)O)C(=O)O)C(C)C)C(=O)N[C@@H](CCS(C)=O)C(N)=O) [Peptide 276] | 63.8
{C20 diacid}-[γGlu]E[AEEA][AEEA]GQHWAV[ACBA]HL[Nle]-NH2 (reading uncertain) [Peptide 273] | 12.3
Palmitoyl-[d(γGlu)]GNHWAV[Aib]HL[Nle]-NH2 (SMILES CCCCCCCCCCCCCCCC(=O)N[C@H](CCC(=O)NCC(=O)N[C@@H](CC(N)=O)C(=O)N[C@@H](Cc1c[nH]cn1)C(=O)N[C@@H](Cc1c[nH]c2ccccc12)C(=O)N[C@@H](C)C(=O)N[C@H](C(=O)NC(C)(C)C(=O)N[C@@H](Cc1c[nH]cn1)C(=O)N[C@@H](CC(C)C)C(=O)N[C@@H](CCCC)C(N)=O)C(C)C)C(=O)O) [Peptide 21] | 120
Palmitoyl-[d(γGlu)][AEEA][AEEA]GNH[Trp(7-Me)]AV[Aib]HL[Nle]-NH2 (SMILES CCCCCCCCCCCCCCCC(=O)N[C@H](CCC(=O)NCCOCCOCC(=O)NCCOCCOCC(=O)NCC(=O)N[C@@H](CC(N)=O)C(=O)N[C@@H](Cc1c[nH]cn1)C(=O)N[C@@H](Cc1c[nH]c2c(C)cccc12)C(=O)N[C@@H](C)C(=O)N[C@H](C(=O)NC(C)(C)C(=O)N[C@@H](Cc1c[nH]cn1)C(=O)N[C@@H](CC(C)C)C(=O)N[C@@H](CCCC)C(N)=O)C(C)C)C(=O)O) [Peptide 22] | 10.3
{C20 diacid}-[γGlu][γGlu][AEEA][AEEA]GDH[Trp(7-Me)]AV[BABA][NMeH]L[Nle]-NH2 [Peptide 278] | 10.8
Palmitoyl-[d(γGlu)][AEEA][AEEA]GNH[Trp(7-Me)][Aib]V[dA][3Pal]L[Nle][Sar]-NH2 (SMILES CCCCCCCCCCCCCCCC(=O)N[C@H](CCC(=O)NCCOCCOCC(=O)NCCOCCOCC(=O)NCC(=O)N[C@@H](CC(N)=O)C(=O)N[C@@H](Cc1c[nH]cn1)C(=O)N[C@@H](Cc1c[nH]c2c(C)cccc12)C(=O)NC(C)(C)C(=O)N[C@H](C(=O)N[C@H](C)C(=O)N[C@@H](Cc1cccnc1)C(=O)N[C@@H](CC(C)C)C(=O)N[C@@H](CCCC)C(=O)N(C)CC(N)=O)C(C)C)C(=O)O) [Peptide 20] | > 1000
Palmitoyl-[d(γGlu)][AEEA][AEEA]GEH[Trp(7-Me)][Aib]V[dA][3Pal]L[Nle][Sar]-NH2 (SMILES CCCCCCCCCCCCCCCC(=O)N[C@H](CCC(=O)NCCOCCOCC(=O)NCCOCCOCC(=O)NCC(=O)N[C@@H](CCC(=O)O)C(=O)N[C@@H](Cc1c[nH]cn1)C(=O)N[C@@H](Cc1c[nH]c2c(C)cccc12)C(=O)NC(C)(C)C(=O)N[C@H](C(=O)N[C@H](C)C(=O)N[C@@H](Cc1cccnc1)C(=O)N[C@@H](CC(C)C)C(=O)N[C@@H](CCCC)C(=O)N(C)CC(N)=O)C(C)C)C(=O)O) [Peptide 19] | > 1000
{C20 diacid}-[γGlu][AEEA][AEEA][Hyp]QHWAV[βAla]HL[Nle]-NH2 (SMILES CCCC[C@H](NC(=O)[C@H](CC(C)C)NC(=O)[C@H](Cc1c[nH]cn1)NC(=O)CCNC(=O)[C@@H](NC(=O)[C@H](C)NC(=O)[C@H](Cc1c[nH]c2ccccc12)NC(=O)[C@H](Cc1c[nH]cn1)NC(=O)[C@H](CCC(N)=O)NC(=O)[C@@H]1C[C@@H](O)CN1C(=O)COCCOCCNC(=O)COCCOCCNC(=O)CC[C@H](NC(=O)CCCCCCCCCCCCCCCCCCC(=O)O)C(=O)O)C(C)C)C(N)=O) [Peptide 269] | 2.4
{C20 diacid}-[γGlu][γGlu][AEEA][AEEA]GQHWAV[ACPC]HL[Nle]-NH2 (reading uncertain) [Peptide 271] | 10.2
